Reference: US9206239B2, “Treatment of cancers with immunostimulatory HIV Tat derivative polypeptides” (PIN Pharma, Inc., priority 2009, dated 2015)
“Also recorded” adds a separate entry of the source.

How the values were obtained:
4T1 cells = test: Repeated dosing of Nani-P2 alternating with cyclophosphamide in 4T1 tumor-bearing mice; type: in vivo, BALB/c mice; details: by day 42; 80 mg/kg IP weekly from day 10
Procedure: Four groups of 10 BALB/c mice were implanted with 1×10^4 4T1 cells SC into the mammary fat pad. Treatment was initiated when tumor diameters reached 4-5 mm, on day 10. Control mice were injected IV with PBS at 3 days intervals, while alternating treatment mice received 3 doses of drug every 3 days in rotating 10 day cycles. Tumor burden (tumor size mm^3) was calculated using a standard formula. CY: (cyclophosphamide alone) mice were injected IP weekly with 80 mg/kg per mouse beginning on day 10. Cy/Nani-P2: (cyclophosphamide first followed by Nani-P2) mice were first injected IP with cyclophosphamide (80 mg/kg) at 3 days intervals for three doses starting at day 10 and then injected IV with Nani-P2 (40 ng) at 3 days intervals for three doses in rotation. The cycle of 3 doses of CY followed by 3 doses of Nani-P2 was repeated until day 50. Nani-P2/CY: (Nani-P2 first followed by cyclophosphamide): mice were first injected IV with Nani-P2 (40 ng) at 3 day intervals for 3 doses starting on day 10 and then injected i.p. with cyclophosphamide at 3 day intervals in rotation. The cycle of 3 doses of Nani-P2 followed by 3 doses of CY was repeated until day 50.

4T1 breast tumor cells = test: 4T1 breast tumor growth in BALB/c mice; type: in vivo
From the text: Female BALB/c mice 6 to 8 weeks old were purchased from the Jackson Laboratory (Bar Harbor, […].). Mice were acclimated for at least 1 week before use. Mice were kept in pathogen-free conditions at the Animal Maintenance Facility of the Columbia University of Medical Center and all experiments were approved by the Institutional Animal Care and Use Committee of Columbia University of Medical Center.
4T1 cells, a 6-thioguanine-resistant cell line derived from a BALB/c spontaneous mammary carcinoma was obtained from ATCC; TS/A, a murine adenocarcinoma cell line was provided by Dr. Sandra Demaria (Demaria S. et al. Clin Cancer Res. 11:728-34, 2005); and SM1, the BALB/C-derived mammary carcinoma was kindly was provided by Dr. James Allison, University of California, Berkeley. All tumor cell lines were cultured in DMEM, supplemented with 2 mM L-glutamine, 10 mM HEPES, 150 units/ml penicillin/streptomycin, 10% heat-inactivated FCS (Invitrogen), 50 μM 2-mercaptoethanol (Sigma), and 50 mg/L gentamicin (Lanza).
BALB/c were injected (SC) with 1×10^4 4T1, 1×10^5 TS/A or 2×10^5 SM1 cells, respectively, in the left mammary pad on day 0. Immunotherapy was performed by directly injecting a Tat derivative into the right flank at 0, 7, 12, and 17 days after establishment of tumors. The control group received PBS injection. […] Tumor burden (tumor volume) was measured and recorded three times weekly. Animals were sacrificed when tumors reached a volume of 15 mm in diameter and the tumors harvested and weighed.
The therapeutic effect of systemic administration of synthetic, Tat-derived compositions in murine models of breast cancer was investigated. To compare the relative protection conferred by a small panel of different derivatives against primary breast tumor growth, female BALB/c mice were injected with 1×10^4 4T1 breast tumor cells SC into the mammary pad, and then treated with 400 ng partially-purified Tat derivatives at day 0, 7, 14 and 21 (SC injection in PBS) into the draining axillary lymph nodes.

In the case of `O=P1(N(CCCl)CCCl)NCCCO1` (stereo not drawn) [cyclophosphamide, reference compound], the treated mice dead (4T1 cells) is reported as 10/10.

B1: Nani-P3: HIV Tat derivative polypeptide, SEQ ID NO: 4; serine-rich TARA homology sequence replaces the SH3 binding sequence (protein)
chain: METPLKEQENSLESCREHSSSISEVDVPTPVSCLRKGGRCWNRCIGNTRQIGSCGVPFLKCCKRKPFTRKGLGISYGRKKRRQRRRAPQDSQTHQASLSKQPASQSRGDPTGPTESKKKVERETETDPFD
modifications: Nani-P3 modified HIV Tat sequence
B1 was tested, and the “4T1 primary tumor growth vs controls” value (4T1 breast tumor cells; 400 ng or 2 μg SC days 0, 7, 14, 21) was “less effective at suppressing 4T1 primary tumor growth; also recorded: no difference”.

B2: Nani-P1: HIV Tat derivative polypeptide, SEQ ID NO: 2; internal prolines of the SH3-binding site each substituted as alanine (protein)
chain: MEPVDANLEAWKHAGSQPRKTACTTCYCKKCCFHCQVCFTRKGLGISYGRKKRRQRRRAPQDSQTHQASLSKQPASQSRGDPTGPTESKKKVERETETDPFD
modifications: Nani-P1 modified HIV Tat sequence
For B2, the “tumor burden compared to control mice receiving PBS” value (4T1 breast tumor cells; 400 ng partially-purified derivative SC day 0, 7, 14, 21, apparent from day 15 (p<0.05)) was “significantly reduced tumor burden”.
